Columns and labels:
[1] = target: T1, Aβ1-42 (Homo sapiens, UniProt P05067); experiment: Aβ ELISA, binding to Aβ peptides and Aβ1-42 assembly states; set-up: purchased Bachem; settings: ELISA; monomeric, oligomeric, fibers, oligomer assemblies
Excerpt: (§1) FIG. 1 provides graphs and immunohistochemical images corresponding to the experiments described in Example 6.1 and 6.2. […] As a control, an anti-Aβ IgG monoclonal antibody with a N-terminal epitope was used. […] The mean (±SEM) of two assays is shown.
Murine anti-Aβ monoclonal antibodies were generated by immunizing mice with an Aβ peptide antigen using a liposomal vaccine formulation as previously described (Muhs et al., 2007). Several criteria were used to select candidate antibodies, including the ability to bind multiple Aβ species and to inhibit Aβ1-42 assembly into small cytotoxic peptide aggregates. A monoclonal murine mAb with an IgG2b backbone (mMABT) was selected for in vivo functionality studies using both single-transgenic murine mutant human APP and double-transgenic murine mutant human APP/PS1 models of Alzheimer's Disease. […] These ranged from monomeric and oligomeric Aβ1-42 fractions isolated by size-exclusion chromatography (SEC), mature Aβ1-42 fibers, to a more complex mixture of highly neurotoxic Aβ1-42 oligomer assemblies, ranging in size from dimers and trimers to higher molecular-weight multimers (see FIG. 8).
Target sequence in this assay (P05067 672-713): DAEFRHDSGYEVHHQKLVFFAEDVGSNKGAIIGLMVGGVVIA

[2] = system: Aβ plaques in the brains of transgenic mice expressing hAPP; experiment: Immunostaining of Aβ plaques in brain sections of hAPP transgenic mice; type: binding; settings: hAPP transgenic mouse brain sections
Excerpt: as §1

[3] = target: T1, Aβ1-42; experiment: Aβ1-42 self-assembly assay not relying on ThT fluorescence; type: biochemical; settings: labeled Aβ1-42 onto immobilized un-labeled Aβ1-42
Target sequence in this assay (P05067 672-713 limits assumed): as the sequence (P05067 672-713) above

[4] = system: enriched microglia; experiment: TNFα release by enriched microglia; type: cell-based, rat; settings: 24 h of treatment
Method: FIG. 6 provides a graph corresponding to the experiments described in Example 6.6. […] The release of TNFα by enriched microglia was measured following 24 h of treatment (see Methods). The mean (±SEM) of three independent experiments is shown. Statistical analysis was done using one-way ANOVA followed by Tukey post-hoc multiple comparison.
To link the increased microglia activity more directly to a downstream pro-inflammatory readout, the TNFα release by primary cell cultures enriched for microglia was measured ([…] Iba1^+, not shown). The release of pro-inflammatory TNFα by enriched microglia when treated with Aβ1-42 oligomers was reduced in the presence of all anti-Aβ monoclonal antibodies tested (FIG. 6). […] Thus, an anti-Aβ IgG4 monoclonal antibody may have a more desirable profile as compared to an anti-Aβ IgG1 monoclonal antibody, combining neuroprotective effects and ability to promote Aβ engulfment by microglia with limited microglial activation.
Rat cortical cultures enriched for microglia (>60% Iba1^+ of total DAPI^+ cells) were treated with 10 μM Aβ1-42 oligomers with or without 100 μg/mL antibodies for 6 h and 24 h. LPS (Sigma) at 1 μg/mL was used as a positive control stimulus. […]

[5] = system: mixed cortical cells from P1 rats; experiment: Immunofluorescence of Aβ1-42 oligomer binding to neurons; type: cell-based, rat; settings: co-treatment, 30 min to 18 h
Method: FIG. 3 provides graphs and immunocytochemical images corresponding to the experiments described in Example 6.4. Aβ1-42 oligomer binding to neurites was reduced by the anti-Aβ IgG4 monoclonal antibody. […] Green indicates staining with TuJ1, red indicates labeling with anti-Aβ (clone 6E10), and blue indicates staining with DAPI. […] Quantitative measures of fluorescence are shown for 30 min treatment and 18 h treatment (B). Mean results (±SEM) of two experiments are shown. […] Cortical cultures from P1 rats were treated as described for (A), except that Aβ1-42 tagged with HyLite Fluor-488 was used (C). Aβ1-42-labeled samples are shown in the upper panel and DAPI-stained samples are shown in the lower panel. One representative experiment is shown. Aβ1-42 fluorescence was quantified, with the mean (±SD) of the two independent experiments shown (D). […]
Aβ peptides, especially aggregation intermediates (Bateman et al., 2007), are known to associate with various lipids and proteins present in cell membranes. […] This effect was readily apparent as early as 30 min (FIGS. 3A and 3B) and remained for at least 18 h of treatment (FIG. 3B).
Cells were grown on a glass coverslips. […] Fluorescence intensity was measured in cell bodies delineated by saturated epifluorescence pictures. […]

[6] = system: amyloid plaques in human AD brain sections; experiment: Immunohistochemistry of amyloid plaques in human AD brain sections; type: binding
Excerpt: Paraffin mounted temporal lobe brain sections (20 μm) from an AD patient and from an age-matched non-AD control (Tissue Solutions, Clydebank, UK) were used for immunohistochemistry staining. […] A goat-anti-human biotinylated IgG was used as a secondary antibody. Staining was done with diaminobenzidin (Dako, Glostrup, Denmark) and mounting using Eukitt mounting medium. Images were acquired on a LSM 700 inverted microscope from Zeiss.

[7] = target: Aβ1-42 binding to recombinant human ApoE4 (Homo sapiens, UniProt P05067); experiment: ELISA of Aβ1-42 binding to recombinant human ApoE4; type: biochemical; settings: saturating concentrations of ApoE4 and Aβ1-42
Excerpt: FIG. 9 provides a graph corresponding to the experiments described in Example 6.2. […] Percent inhibition of signal without an IgG monoclonal antibody is shown. […] The interaction site of ApoE4 with Aβ1-42 requires amino acids 18 to 28 (Strittmatter et al., 1993).

Sequence of Aβ1-42 binding to recombinant human ApoE4 (P05067 672-713 limits assumed): as the sequence (P05067 672-713) above

Substance: MABT: humanized anti-Aβ monoclonal antibody of IgG4 isotype, affinity matured and humanized form of mouse mMABT
- binding to different Aβ1-42 peptide preparations [1]: highly comparable among the different Aβ1-42 assembly states
- binding to Aβ plaques [2]: immunodecorated
- Aβ1-42 self-assembly [3]: prevented the self-assembly of Aβ1-42 in a dose-dependent manner
- release of TNFα by enriched microglia treated with Aβ1-42 oligomers [4]: greatest effect
- interaction of Aβ1-42 oligomers with neurons [5]: blocked the interaction of Aβ1-42 oligomers with neurons
- binding to amyloid plaques [6]: immunodecorated
- inhibition of the Aβ1-42 and ApoE4 interaction [7]: over 80%
